Laboratory results reported in article PMC12717047 (Nature Communications, 2025).

What was measured:
Experiment in all cases: flow cytometry on cells
[1] = biological target: T1, KRAS^WT p5 peptide presented on HLA-A*02 (p5^WT/A*02) (Homo sapiens, HLA-A*02:01, strain, biotin on the AviTag (BirA co-expressed))
T1 chain 1: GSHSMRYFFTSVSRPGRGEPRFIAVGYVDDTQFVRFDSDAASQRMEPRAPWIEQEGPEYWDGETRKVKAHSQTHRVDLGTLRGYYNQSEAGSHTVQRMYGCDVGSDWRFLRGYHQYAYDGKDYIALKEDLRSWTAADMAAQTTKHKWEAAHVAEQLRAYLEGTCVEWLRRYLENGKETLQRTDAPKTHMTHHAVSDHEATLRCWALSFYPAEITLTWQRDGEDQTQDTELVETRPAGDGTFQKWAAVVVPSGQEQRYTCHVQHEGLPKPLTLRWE
T1 chain 2: not shown
T1 chain 3: KLVVVGAGGV

[2] = biological target: KRAS^WT p7 peptide presented on HLA-A*11 (p7^WT/A*11) (Homo sapiens, HLA-A*11:01, strain, biotin on the AviTag (BirA co-expressed))
[3] = biological target: T2, KRAS^WT p7 peptide presented on HLA-A*03 (p7^WT/A*03) (Homo sapiens, HLA-A*03:01, strain, biotin on the AviTag (BirA co-expressed))
T2 chain 1: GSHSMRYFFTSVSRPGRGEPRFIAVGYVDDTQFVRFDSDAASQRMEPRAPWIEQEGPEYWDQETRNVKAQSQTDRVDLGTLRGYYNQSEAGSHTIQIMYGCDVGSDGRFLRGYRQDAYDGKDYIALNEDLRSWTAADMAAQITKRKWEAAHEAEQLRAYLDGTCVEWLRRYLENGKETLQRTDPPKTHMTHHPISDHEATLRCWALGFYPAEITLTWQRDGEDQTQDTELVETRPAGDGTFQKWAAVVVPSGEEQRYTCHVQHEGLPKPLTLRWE
T2 chain 2: not shown
T2 chain 3: VVVGAGGVGK

Measured: binding result

B1: yeast-displayed scFv R302 (scFv, V domains shown)
VH: EVQLLESGGGVVQPGRSLRLSCAASGFTFSSYGMHWVRQAPGKGLEWVAVISYDGSNKYYADSVKGRFTISRDNSKNTLYLQMNSLRAEDTAVYYCLYGGNSYGMDVWGQGTMVTVFN
VL: DIVMTQSPATLSLSPGERATLSCRASQSLSSSFLAWYQQKPGQAPRLLIYGASSRATGIPDRFSGSGSGTDFTLTISRLEPEDFAVYYCQQSESALTFGGGTKVEIK
no binding: all assays above
